{"source": "paper PMC9250616", "about": "(Angiogenesis, 2022)", "key": {"Collagen VI": {"target": "Collagen VI", "sequence (P12109 20-1028, chain 1 of 3)": "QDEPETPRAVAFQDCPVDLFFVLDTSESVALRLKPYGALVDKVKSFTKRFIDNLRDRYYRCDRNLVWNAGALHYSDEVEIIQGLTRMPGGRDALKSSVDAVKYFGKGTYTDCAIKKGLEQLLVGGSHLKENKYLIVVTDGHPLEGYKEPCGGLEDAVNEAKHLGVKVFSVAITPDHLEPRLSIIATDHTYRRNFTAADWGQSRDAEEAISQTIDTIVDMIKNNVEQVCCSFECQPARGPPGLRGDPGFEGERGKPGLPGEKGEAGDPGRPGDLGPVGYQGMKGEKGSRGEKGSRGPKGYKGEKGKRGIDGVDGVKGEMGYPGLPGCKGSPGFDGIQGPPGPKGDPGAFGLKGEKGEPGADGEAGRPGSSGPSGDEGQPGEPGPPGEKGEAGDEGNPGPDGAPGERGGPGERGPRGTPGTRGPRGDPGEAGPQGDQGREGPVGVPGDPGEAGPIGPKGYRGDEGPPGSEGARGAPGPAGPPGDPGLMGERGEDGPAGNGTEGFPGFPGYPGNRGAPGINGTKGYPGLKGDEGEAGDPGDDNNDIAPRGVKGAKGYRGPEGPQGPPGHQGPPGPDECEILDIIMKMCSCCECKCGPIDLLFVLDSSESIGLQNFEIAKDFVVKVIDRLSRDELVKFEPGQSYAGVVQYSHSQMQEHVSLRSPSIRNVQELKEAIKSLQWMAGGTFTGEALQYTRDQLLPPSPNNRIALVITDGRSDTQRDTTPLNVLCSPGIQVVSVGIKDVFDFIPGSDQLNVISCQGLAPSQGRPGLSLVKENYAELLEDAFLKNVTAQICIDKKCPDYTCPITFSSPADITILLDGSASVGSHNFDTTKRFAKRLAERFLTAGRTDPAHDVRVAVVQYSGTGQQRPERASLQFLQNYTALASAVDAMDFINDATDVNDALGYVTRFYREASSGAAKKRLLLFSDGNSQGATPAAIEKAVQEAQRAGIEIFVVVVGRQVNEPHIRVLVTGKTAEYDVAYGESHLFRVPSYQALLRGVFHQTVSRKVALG", "sequence (P12110 21-1019, chain 2 of 3, further chain)": "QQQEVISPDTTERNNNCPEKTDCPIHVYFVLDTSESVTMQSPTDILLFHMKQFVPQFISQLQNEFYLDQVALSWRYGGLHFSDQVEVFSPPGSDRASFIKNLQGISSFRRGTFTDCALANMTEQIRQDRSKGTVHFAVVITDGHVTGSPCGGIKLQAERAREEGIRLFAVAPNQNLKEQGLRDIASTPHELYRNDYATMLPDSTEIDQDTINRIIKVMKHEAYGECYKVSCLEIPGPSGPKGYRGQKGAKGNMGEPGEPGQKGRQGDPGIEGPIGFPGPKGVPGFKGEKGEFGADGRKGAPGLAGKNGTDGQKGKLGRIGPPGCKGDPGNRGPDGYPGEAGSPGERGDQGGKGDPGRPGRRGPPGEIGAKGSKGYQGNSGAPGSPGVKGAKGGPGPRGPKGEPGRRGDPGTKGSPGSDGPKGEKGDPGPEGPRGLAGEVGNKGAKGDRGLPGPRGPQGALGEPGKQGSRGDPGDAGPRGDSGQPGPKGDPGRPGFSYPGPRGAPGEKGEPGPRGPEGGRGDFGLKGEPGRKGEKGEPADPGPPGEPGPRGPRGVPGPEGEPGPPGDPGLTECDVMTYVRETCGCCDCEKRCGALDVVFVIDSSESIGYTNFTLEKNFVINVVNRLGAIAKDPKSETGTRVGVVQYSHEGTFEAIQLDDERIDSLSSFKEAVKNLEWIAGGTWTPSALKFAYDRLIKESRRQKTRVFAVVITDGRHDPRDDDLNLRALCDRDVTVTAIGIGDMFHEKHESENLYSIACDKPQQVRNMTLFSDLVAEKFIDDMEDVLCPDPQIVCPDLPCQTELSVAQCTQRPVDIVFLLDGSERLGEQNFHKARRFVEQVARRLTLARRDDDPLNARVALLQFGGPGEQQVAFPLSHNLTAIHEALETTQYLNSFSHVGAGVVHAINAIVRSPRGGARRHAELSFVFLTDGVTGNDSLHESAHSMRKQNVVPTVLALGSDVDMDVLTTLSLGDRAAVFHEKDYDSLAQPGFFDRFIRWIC", "sequence (P12111 26-3177, chain 3 of 3, further chain)": "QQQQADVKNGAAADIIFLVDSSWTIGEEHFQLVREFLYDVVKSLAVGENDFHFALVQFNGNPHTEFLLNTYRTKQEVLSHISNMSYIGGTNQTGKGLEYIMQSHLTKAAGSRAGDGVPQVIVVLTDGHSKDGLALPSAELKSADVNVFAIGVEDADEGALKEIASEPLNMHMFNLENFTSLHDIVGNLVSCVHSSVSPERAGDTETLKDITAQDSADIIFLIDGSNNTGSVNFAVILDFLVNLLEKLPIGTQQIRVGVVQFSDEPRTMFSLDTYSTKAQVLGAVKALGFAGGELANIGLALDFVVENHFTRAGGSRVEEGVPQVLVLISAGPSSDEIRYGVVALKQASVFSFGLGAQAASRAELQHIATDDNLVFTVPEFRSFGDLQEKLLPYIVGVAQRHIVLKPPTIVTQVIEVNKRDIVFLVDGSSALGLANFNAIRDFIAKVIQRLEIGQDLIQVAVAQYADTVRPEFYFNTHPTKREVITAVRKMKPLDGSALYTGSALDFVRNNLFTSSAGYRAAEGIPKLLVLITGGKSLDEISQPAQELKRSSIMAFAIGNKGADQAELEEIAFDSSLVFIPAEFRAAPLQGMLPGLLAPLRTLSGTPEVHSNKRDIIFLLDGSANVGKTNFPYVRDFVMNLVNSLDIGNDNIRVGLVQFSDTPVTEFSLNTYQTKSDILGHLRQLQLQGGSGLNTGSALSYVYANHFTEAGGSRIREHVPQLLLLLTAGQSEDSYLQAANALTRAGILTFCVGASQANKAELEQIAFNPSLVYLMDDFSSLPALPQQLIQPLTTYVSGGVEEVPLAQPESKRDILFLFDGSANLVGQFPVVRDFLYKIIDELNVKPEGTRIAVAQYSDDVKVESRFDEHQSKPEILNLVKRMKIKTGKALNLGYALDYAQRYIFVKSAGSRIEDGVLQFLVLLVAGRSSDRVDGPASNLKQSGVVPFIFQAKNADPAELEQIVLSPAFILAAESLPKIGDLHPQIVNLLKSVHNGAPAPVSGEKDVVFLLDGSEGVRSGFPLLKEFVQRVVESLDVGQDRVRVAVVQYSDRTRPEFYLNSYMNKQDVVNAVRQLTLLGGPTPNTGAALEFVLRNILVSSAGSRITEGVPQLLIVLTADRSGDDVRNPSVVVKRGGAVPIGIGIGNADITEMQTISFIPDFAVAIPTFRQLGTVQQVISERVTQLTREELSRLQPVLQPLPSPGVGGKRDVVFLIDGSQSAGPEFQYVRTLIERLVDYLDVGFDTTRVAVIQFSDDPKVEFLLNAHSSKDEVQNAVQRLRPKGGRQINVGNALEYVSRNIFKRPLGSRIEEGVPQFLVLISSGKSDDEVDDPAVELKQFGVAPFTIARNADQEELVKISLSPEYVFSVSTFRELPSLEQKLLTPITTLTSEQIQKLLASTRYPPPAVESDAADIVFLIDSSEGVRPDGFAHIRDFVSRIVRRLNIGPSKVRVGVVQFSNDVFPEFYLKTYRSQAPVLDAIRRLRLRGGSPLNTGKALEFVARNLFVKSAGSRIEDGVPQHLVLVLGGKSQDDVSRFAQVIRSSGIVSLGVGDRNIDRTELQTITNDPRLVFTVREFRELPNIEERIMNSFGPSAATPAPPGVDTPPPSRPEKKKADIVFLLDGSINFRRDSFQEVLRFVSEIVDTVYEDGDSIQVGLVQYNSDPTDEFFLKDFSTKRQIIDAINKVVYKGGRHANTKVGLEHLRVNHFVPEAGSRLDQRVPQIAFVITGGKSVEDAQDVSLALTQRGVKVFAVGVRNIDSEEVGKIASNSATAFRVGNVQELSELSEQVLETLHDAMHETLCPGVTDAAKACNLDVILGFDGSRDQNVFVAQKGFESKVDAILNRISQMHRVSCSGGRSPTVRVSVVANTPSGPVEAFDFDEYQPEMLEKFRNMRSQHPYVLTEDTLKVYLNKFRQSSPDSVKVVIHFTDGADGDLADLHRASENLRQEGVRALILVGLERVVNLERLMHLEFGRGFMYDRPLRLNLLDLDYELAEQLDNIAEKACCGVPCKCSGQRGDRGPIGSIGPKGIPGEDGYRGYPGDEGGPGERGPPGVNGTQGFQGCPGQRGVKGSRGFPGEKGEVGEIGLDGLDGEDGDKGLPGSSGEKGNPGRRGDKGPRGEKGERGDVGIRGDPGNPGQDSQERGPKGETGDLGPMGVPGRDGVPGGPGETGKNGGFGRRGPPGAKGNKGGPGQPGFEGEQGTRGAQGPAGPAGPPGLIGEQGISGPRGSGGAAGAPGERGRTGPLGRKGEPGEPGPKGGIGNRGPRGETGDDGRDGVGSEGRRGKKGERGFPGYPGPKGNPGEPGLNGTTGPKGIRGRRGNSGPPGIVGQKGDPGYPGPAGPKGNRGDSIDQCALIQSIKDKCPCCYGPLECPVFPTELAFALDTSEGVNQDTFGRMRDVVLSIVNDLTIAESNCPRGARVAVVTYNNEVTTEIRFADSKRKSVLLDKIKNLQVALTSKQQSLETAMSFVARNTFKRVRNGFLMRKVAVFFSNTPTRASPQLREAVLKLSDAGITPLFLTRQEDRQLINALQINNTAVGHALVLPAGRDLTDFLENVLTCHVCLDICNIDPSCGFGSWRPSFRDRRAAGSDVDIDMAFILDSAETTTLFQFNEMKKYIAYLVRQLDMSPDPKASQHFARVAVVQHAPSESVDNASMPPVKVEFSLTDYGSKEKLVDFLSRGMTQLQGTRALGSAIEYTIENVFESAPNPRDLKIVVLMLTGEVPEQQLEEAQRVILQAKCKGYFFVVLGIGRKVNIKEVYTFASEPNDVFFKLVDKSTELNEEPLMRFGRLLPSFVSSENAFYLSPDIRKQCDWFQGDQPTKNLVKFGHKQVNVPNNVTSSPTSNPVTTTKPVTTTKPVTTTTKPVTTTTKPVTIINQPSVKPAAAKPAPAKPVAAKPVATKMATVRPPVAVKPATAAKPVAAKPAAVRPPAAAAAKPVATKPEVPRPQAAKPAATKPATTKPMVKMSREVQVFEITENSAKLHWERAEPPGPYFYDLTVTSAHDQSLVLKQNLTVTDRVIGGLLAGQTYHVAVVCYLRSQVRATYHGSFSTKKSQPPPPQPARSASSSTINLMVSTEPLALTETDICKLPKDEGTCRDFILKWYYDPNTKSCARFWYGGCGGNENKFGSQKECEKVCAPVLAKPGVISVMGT", "assay": "ELISA"}, "Collagen I": {"target": "Collagen I", "assay": "ELISA"}}, "data": [{"binder": "biotinylated CMG2-AviTag construct (capillary morphogenesis gene 2, anthrax toxin receptor 2) (receptor, biotin (biotinylated CMG2-AviTag construct)) not shown", "values": [{"measurement": "Kd", "setting": "Collagen VI", "value": 800, "unit": "nM"}, {"measurement": "Kd", "setting": "Collagen I", "value": 500, "unit": "nM"}]}]}
